# Assay results reported in patent US20120316071A1 (published 2012).
# T1: rHuman Erythropoietin R/Fc Chimera, CF (R&D Systems Cat#963-ER) (human, UniProt P19235 25-250)
# T1 construct: Bought Fc chimera; also called EPO R/Fc; EPO R; Fc part of the bought chimera not given
# T1 sequence (looked up): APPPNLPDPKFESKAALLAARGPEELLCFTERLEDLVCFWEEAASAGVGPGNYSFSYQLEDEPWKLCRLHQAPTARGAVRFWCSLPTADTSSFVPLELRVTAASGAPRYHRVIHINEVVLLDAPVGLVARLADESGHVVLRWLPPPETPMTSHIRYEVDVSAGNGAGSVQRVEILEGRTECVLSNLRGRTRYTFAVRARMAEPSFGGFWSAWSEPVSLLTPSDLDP
# T2: rHuman Erythropoietin R/Fc Chimera, CF (R&D Systems Cat#963-ER) (human, UniProt P19235 25-250)
# T2 construct: Bought recombinant protein; also called EPO R/Fc; Epo R; Fc part of the bought chimera not given
# T2 sequence (looked up): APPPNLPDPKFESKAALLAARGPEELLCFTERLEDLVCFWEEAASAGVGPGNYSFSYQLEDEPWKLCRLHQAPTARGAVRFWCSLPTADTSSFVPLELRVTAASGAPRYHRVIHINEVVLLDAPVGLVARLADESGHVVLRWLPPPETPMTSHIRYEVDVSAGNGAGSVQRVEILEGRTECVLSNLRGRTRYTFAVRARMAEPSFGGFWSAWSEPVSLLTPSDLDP
# Legend:
# [1] = molecular target: T1, rHuman Erythropoietin R/Fc Chimera, CF …; assay: Multispot ECL (MSD) titration; antigen spotted on plate; Fab 14.5 nM; blank spot 117
# [2] = molecular target: T3, Recombinant Human DLL4 (R&D Systems Cat#1506-D4/CF) (human, UniProt Q9NR61 27-524); assay: as above
# T3 construct: Bought recombinant protein; also called delta-like protein 4; rHuman DLL4
# [3] = molecular target: T4, rHuman ErbB2/Fc Chimera, CF (R&D Systems Cat#1129-ER) (human, UniProt P04626 23-652); assay: as above
# T4 construct: Bought Fc chimera; also called human epidermal growth factor 2 receptor; Fc part of the bought chimera not given
# [4] = molecular target: T5, rHuman Notch-1/Fc Chimera, CF (R&D Systems Cat#3647-TK) (human, UniProt P46531 19-526); assay: as above
# T5 construct: Bought Fc chimera; Fc part of the bought chimera not given
# [5] = molecular target: T6, rHuman CD44/Fc Chimera, CF (R&D Systems Cat#3660-CD) (human, UniProt P16070 21-220); assay: as above
# T6 construct: Bought Fc chimera; Fc part of the bought chimera not given
# [6] = molecular target: T7, rHuman IGF-1 sR (IGF-1 sR), CF (R&D Systems Cat#391-GR) (human, UniProt P08069 31-932); assay: as above
# T7 construct: Bought soluble receptor; also called insulin-like growth factor-1 soluble receptor
# [7] = molecular target: T8, rHuman P-Cadherin/Fc Chimera, CF (R&D Systems Cat#861-PC) (human, UniProt P22223 108-654); assay: as above
# T8 construct: Bought Fc chimera; Fc part of the bought chimera not given
# [8] = molecular target: T9, rHuman EGF R/Fc Chimera, CF (R&D Systems Cat#344-ER) (human, UniProt P00533 25-645); assay: ECL multispot (MSD) assay, spotted antigen; Fab 200.00 (head prints uM)
# T9 construct: Bought recombinant protein; Fc part of the bought chimera not given
# [9] = molecular target: T10, rHuman HGF R/c-MET/Fc Chimera, CF (R&D Systems Cat#358-MT/CF) (human, UniProt P08581 25-932); assay: as above
# T10 construct: Bought recombinant protein; also called HGF R/Fc; Fc part of the bought chimera not given
# [10] = molecular target: T11, rHuman CD44/Fc Chimera, CF (R&D Systems Cat#3660-CD) (human, UniProt P16070 21-220); assay: as above
# T11 construct: Bought recombinant protein; Fc part of the bought chimera not given
# [11] = molecular target: T12, rHuman IGF-1 sR, CF (R&D Systems Cat#391-GR) (human, UniProt P08069 31-932); assay: as above
# T12 construct: Bought soluble receptor; The column head prints only 'IGF-1'; also called insulin-like growth factor-1 soluble receptor
# [12] = molecular target: T2, rHuman Erythropoietin R/Fc Chimera, CF …; assay: MSD multispot ECL, antigen spotted on plate; Fab 0.00797 uM; blank spot 364
# [13] = molecular target: T13, Recombinant Human DLL4 (R&D Systems Cat#1506-D4/CF) (human, UniProt Q9NR61 27-524); assay: as above
# T13 construct: Bought recombinant protein; also called delta-like protein 4; rHuman DLL4
# [14] = molecular target: T14, rHuman ErbB2/Fc Chimera, CF (R&D Systems Cat#1129-ER) (human, UniProt P04626 23-652); assay: as above
# T14 construct: Bought recombinant protein; also called human epidermal growth factor 2 receptor; Fc part of the bought chimera not given
# [15] = molecular target: T15, rHuman EGF R/Fc Chimera, CF (R&D Systems Cat#344-ER) (human, UniProt P00533 25-645); assay: as above
# T15 construct: Bought recombinant protein; also called epidermal growth factor receptor; Fc part of the bought chimera not given
# [16] = molecular target: T16, rHuman HGF R/c-MET/Fc Chimera, CF (R&D Systems Cat#358-MT/CF) (human, UniProt P08581 25-932); assay: as above
# T16 construct: Bought recombinant protein; also called HGF R/Fc; hepatocyte growth factor receptor; Fc part of the bought chimera not given
# [17] = molecular target: T17, rHuman CD44/Fc Chimera, CF (R&D Systems Cat#3660-CD) (human, UniProt P16070 21-220); assay: as above
# T17 construct: Bought recombinant protein; Fc part of the bought chimera not given
# [18] = molecular target: T18, rHuman IGF-1 sR, CF (R&D Systems Cat#391-GR) (human, UniProt P08069 31-932); assay: as above
# T18 construct: Bought recombinant soluble receptor; also called insulin-like growth factor-1 soluble receptor
binder,measurement,setting,value
"Fab VH1-46_IGHD6-13*01_IGHJ4*01 & O1_IGKJ1*01 (Fab, V domains shown, Germline library Fab expressed in E. coli; VH was cloned into Plasmid A (CH1 constant region, His6 and Flag tags); The kappa VL was cloned into Plasmid C (kappa CL)) VH: QVQLVQSGAEVKKPGASVKVSCKASGYTFTSYYMHWVRQAPGQGLEWMGIINPSGGSTSYAQKFQGRVTMTRDTSTSTVYMELSSLRSEDTAVYYCAREGYSSSWYDYFDYWGQGTLVTVSS VL: DIVMTQTPLSLPVTPGEPASISCRSSQSLLDSDDGNTYLDWYLQKPGQSPQLLIYTLSYRASGVPDRFSGSGSGTDFTLKISRVEAEDVGVYYCMQRIEFPSWTFGQGTKVEIKR",ECL signal,[1],660
same,ECL signal,[2],1150
same,ECL signal,[3],274
same,ECL signal,[4],317
same,ECL signal,[5],212
same,ECL signal,[6],234
same,ECL signal,[7],277
"Fab VH5-51_IGHD5-18*01>3_IGHJ4*01 G100K/G104T & V3-4_IGLJ1*01 (Fab, V domains shown, Tested as a Fab; The constant parts are the same as for the parent Fab (CH1 with His6/Flag tags, lambda CL); also called KT double mutant; H:KT) VH: EVQLVQSGAEVKKPGESLKISCKGSGYSFTSYWIGWVRQMPGKGLEWMGIIYPGDSDTRYSPSFQGQVTISADKSISTAYLQWSSLKASDTAMYYCARRKYSYTYDYFDYWGQGTLVTVSS VL: QTVVTQEPSFSVSPGGTVTLTCGLSSGSVSTSYYPSWYQQTPGQAPRTLIYSTNTRSSGVPDRFSGSILGNKAALTITGAQADDESDYYCVLYMGSGISYVFGTGTKVTVL",ECL signal/noise ratio,[8],1.6
same,ECL signal/noise ratio,[9],1.7
same,ECL signal/noise ratio,[10],1.4
same,ECL signal/noise ratio,[11],1.5
"Fab VH4-34_IGHD7-27*01_IGHJ4*01 & L5_IGKJ1*01 (Fab, V domains shown, Germline library Fab expressed in E. coli; VH was cloned into Plasmid A, which adds CH1 with His6 and Flag tags) VH: QVQLQQWGAGLLKPSETLSLTCAVYGGSFSGYYWSWIRQPPGKGLEWIGEINHSGSTNYNPSLKSRVTISVDTSKNQFSLKLSSVTAADTAVYYCARANWGDYFDYWGQGTLVTVSS VL: DIQMTQSPSSVSASVGDRVTITCRASQGISSWLAWYQQKPGKAPKLLIYAASSLQSGVPSRFSGSGSGTDFTLTISSLQPEDFATYYCQQANSFPPWTFGQGTKVEIKR",ECL signal,[12],566
same,ECL signal,[13],872
same,ECL signal,[14],493
same,ECL signal,[15],530
same,ECL signal,[16],419
same,ECL signal,[17],490
same,ECL signal,[18],564
